Kd data for one molecule are collected here from US20250043001A1 (published 2025).

This assay addresses human CD28 (human, UniProt P10747 19-152). Nature of the assay: -; scFv VHVL.

B1: 1A7_H1.14_L1 (antibody, V domains shown)
VH: EVQLLESGGGLVQPGGSLRLSCAASGFTFSSYYMSWVRQAPGKGLEWVSTISESGDSTYYADSVKGRFTISRDNSKNTLYLQMNSLRAEDTAVYYCAKSGPGLRQVGFDYWGQGTLVTVSS
VL: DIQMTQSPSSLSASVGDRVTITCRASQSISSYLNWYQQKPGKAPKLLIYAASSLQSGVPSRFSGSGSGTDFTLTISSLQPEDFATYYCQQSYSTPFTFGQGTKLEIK
In turn, B1 gave a Kd of 230 nM.
